# In paper PMC6393702:
# Molecular target: T1, His-Vfr (UniProt P55222 1-214)
# T1 sequence: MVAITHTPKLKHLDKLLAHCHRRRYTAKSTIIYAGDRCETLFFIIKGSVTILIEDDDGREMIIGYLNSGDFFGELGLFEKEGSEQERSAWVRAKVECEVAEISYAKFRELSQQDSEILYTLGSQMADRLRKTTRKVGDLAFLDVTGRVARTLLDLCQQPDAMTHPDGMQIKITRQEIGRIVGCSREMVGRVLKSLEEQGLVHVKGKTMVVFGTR
# Experiment: EMSA
binder,measurement,value
Vfr CRE probe (dsDNA) DNA 1: TCCACGACAATGTGCCTCGCTTGGAAGCTCACGCTCCTCACACAGACGAAAAC DNA 2: GTTTTCGTCTGTGTGAGGAGCGTGAGCTTCCAAGCGAGGCACATTGTCGTGGA,binding result,binds
Vfr CRE-Δ probe (dsDNA) DNA 1: TCCACGACAACCCACCTCGCTTGGAAGCTCACGCTCCTCACACAGACGAAAAC DNA 2: GTTTTCGTCTGTGTGAGGAGCGTGAGCTTCCAAGCGAGGTGGGTTGTCGTGGA,binding result,no binding
